Assay [1] deals with T1, human PCSK9 (PCSK9 antigen, SEQ ID NO. 53) (human, UniProt A8T644 31-152; Q8NBP7 153-692, Biotin-labelled on amines in the MSD-SET and sorting experiments; positions not given.).
T1 construct: Biotin-labelled in MSD-SET; also called PCSK9-WT; PCSK9 protein
The assay is described as follows: flow cytometry, PCSK9 left on CHO-LDLR cells (anti-His-FITC) after premix with 0.1 nM antibody.

Assay [2] concerns the target T1, human PCSK9 (PCSK9 antigen, SEQ ID NO. …). The assay is described as follows: flow cytometry, PCSK9 left on CHO-LDLR cells (anti-His-FITC) after premix with 1 nM antibody. A general note: Flow cytometry measures light scatter and fluorescence of single cells or particles in a stream.
The target is the same in assay [3]. In words: BLI (ForteBio), IgG on AHQ sensor, 100 nM antigen.
The target of assay [4] is T2, murine PCSK-9 (murine, UniProt Q80W65 35-694).
T2 construct: also called mouse PCSK9
In words: BLI (ForteBio), IgG on AHQ sensor, 100 nM antigen. A general note: In BLI a coated tip is dipped into the sample, and binding shifts an interference pattern.

The target in assay [5] is T1, human PCSK9 (PCSK9 antigen, SEQ ID NO. …). In words: flow cytometry, PCSK9 left on CHO-LDLR cells (anti-His-FITC) after premix with 100 nM antibody.
Assay [6] has the same target. In words: flow cytometry, PCSK9 left on CHO-LDLR cells (anti-His-FITC) after premix with 1000 nM antibody.
Assay [7] shares this target. In words: cell-based or functional assay.
Assay [8] shares this target. In words: flow cytometry, PCSK9 left on CHO-LDLR cells (anti-His-FITC) after premix with 10 nM antibody.
Assay [9] shares this target. In words: MSD-SET, Fab with biotin-PCSK9 in solution, IgG on plate, pH 7.4.
The target in assay [10] is T2, murine PCSK-9. The assay is described as above.
The target of assay [11] is T1, human PCSK9 (PCSK9 antigen, SEQ ID NO. …). In words: MSD-SET, Fab with biotin-PCSK9 in solution, IgG on plate, pH 6.0.

As a reminder, the Kd is the concentration at which binding is half-saturated. Read a low Kd as a tighter complex.

B1: Alirocumab (antibody, V domains shown)
VH: EVQLVESGGGLVQPGGSLRLSCAASGFTFNNYAMNWVRQAPGKGLDWVSTISGSGGTTNYADSVKGRFIISRDSSKHTLYLQMNSLRAEDTAVYYCAKDSNWGNFDLWGRGTLVTVSS
VL: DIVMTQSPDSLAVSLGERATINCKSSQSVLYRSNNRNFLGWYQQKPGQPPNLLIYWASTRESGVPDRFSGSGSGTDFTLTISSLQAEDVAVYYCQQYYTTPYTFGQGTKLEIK
Take B1: the “Fluorescence Signal Value” in assay [1] is 7170. In addition, in assay [2], the “Fluorescence Signal Value” came to 6980. The molecule also gave a Kd in assay [3] of 0.0301 nM. Further, in the assay with murine PCSK-9 [4], the affinity, expressed as Kd, was 2.66 nM. For the same molecule, the “Fluorescence Signal Value” in assay [5] turned out to be 4950. The “Fluorescence Signal Value” in [6] turned out to be 4930. Also, in assay [7], the “BODIPY-LDL uptake by HepG2 cells, fluorescence, 4.2 nM, replicate 1” value (from here on “BODIPY-LDL uptake … 4.2 nM, replicate 1”) is 0.364; the “BODIPY-LDL uptake by HepG2 cells, fluorescence, 4.2 nM, replicate 2” value (shortened to “BODIPY-LDL uptake … 4.2 nM, replicate 2”) was 0.37; the “BODIPY-LDL uptake by HepG2 cells, fluorescence, 16.8 nM, replicate 1” value (“BODIPY-LDL uptake … 16.8 nM, replicate 1” below) turned out to be 0.396; the “BODIPY-LDL uptake by HepG2 cells, fluorescence, 16.8 nM, replicate 2” value (shortened to “BODIPY-LDL uptake … 16.8 nM, replicate 2”) amounted to 0.392. In [7], the “BODIPY-LDL uptake by HepG2 cells, fluorescence, 66.7 nM, replicate 1” value (“BODIPY-LDL uptake … 66.7 nM, replicate 1” for short) worked out at 0.686 and the “BODIPY-LDL uptake by HepG2 cells, fluorescence, 66.7 nM, replicate 2” value (“BODIPY-LDL uptake … 66.7 nM, replicate 2” below) was determined as 0.716. In addition, the “Fluorescence Signal Value” in assay [8] was 5750.

B2: Bococizumab (antibody, V domains shown)
VH: QVQLVQSGAEVKKPGASVKVSCKASGYTFTSYYMHWVRQAPGQGLEWMGEISPFGGRTNYNEKFKSRVTMTRDTSTSTVYMELSSLRSEDTAVYYCARERPLYASDLWGQGTTVTVSS
VL: DIQMTQSPSSLSASVGDRVTITCRASQGISSALAWYQQKPGKAPKLLIYSASYRYTGVPSRFSGSGSGTDFTFTISSLQPEDIATYYCQQRYSLWRTFGQGTKLEIK
For B2, the “Fluorescence Signal Value” is 7100 in [1]; 6960 in [2]; 5310 in assay [5]; 6040 in assay [6]; 6270 in assay [8]. Moreover, the Kd was 0.386 nM in assay [3] and 0.663 nM with murine PCSK-9 [4].

B3: ADI-02396 (antibody, human IgG2, kappa, V domains shown)
VH: QLQLQESGPGLVKPSETLSLTCTVSGGSISSSSYYWGWIRQPPGKGLEWIGSIYYSGSTYYNPSLKSRVTISVDTSKNQFSLKLSSVTAADTAVYYCAREGSGVVPAAGPNWFDPWGQGTLVTVSS
VL: EIVLTQSPATLSLSPGERATLSCRASQSVSSYLAWYQQKPGQAPRLLIYDASNRATGIPARFSGSGSGTDFTLTISSLEPEDFAVYYCQQRRNWFTFGGGTKVEIKR
notes: IgG; also called parent antibody
In assay [3], B3 registered a Kd of 9.5 nM. This molecule had an equilibrium dissociation constant (Kd) in the assay with murine PCSK-9 [4] of 78.3 nM. Also, in assay [7], the “BODIPY-LDL uptake … 4.2 nM, replicate 1” value is 0.366; the “BODIPY-LDL uptake … 4.2 nM, replicate 2” value worked out at 0.352; the “BODIPY-LDL uptake … 16.8 nM, replicate 1” value worked out at 0.404; the “BODIPY-LDL uptake … 16.8 nM, replicate 2” value was 0.341. In assay [7], the “BODIPY-LDL uptake … 66.7 nM, replicate 1” value was 0.432 and the “BODIPY-LDL uptake … 66.7 nM, replicate 2” value is 0.401.

B4: ADI-10088 Fab (Fab, V domains shown)
VH: QLQLQESGPGLVKPSETLSLTCTVSGGSIGSSSYYWAWIRQPPGKGLEWIGSINYRGSTYYNPSLKSRVTISVDTSKNQFSLKLSSVTAADTAVYYCARENSGVVPAAGPNWFDPWGQGTLVTVSS
VL: EIVLTQSPATLSLSPGERATLSCRASQSVSSYLAWYQQKPGQAPRLLIYDASNRATGIPARFSGSGSGTDFTLTISSLEPEDFAVYYCQQRRNWFTFGGGTKVEIKR
Consider B4, for which the dissociation constant Kd in assay [9] came to 0.01 nM; with murine PCSK-9 [10], 0.087 nM; in assay [11] it was 0.016 nM.

B5: ADI-10086 (antibody, human IgG2, kappa, V domains shown)
VH: QLQLQESGPGLVKPSETLSLTCTVSGGSIRSSAYYWGWIRQPPGKGLEWIGSINYRGSTYYNPSLKSRVTISVDTSKNQFSLKLSSVTAADTAVYYCARENSGVVPAAGPNWFGPWGQGTLVTVSS
VL: EIVLTQSPATLSLSPGERATLSCRASQSVSSYLAWYQQKPGQAPRLLIYDASNRATGIPARFSGSGSGTDFTLTISSLEPEDFAVYYCQQRRNWFTFGGGTKVEIKR
notes: IgG
Regarding B5, the “Fluorescence Signal Value” was found to be 6600 in assay [1]; 6920 in assay [2]; 5130 in [5]; 5270 in [6]; 5830 in assay [8]. Besides, the Kd stood at 0.336 nM in assay [3] and 0.607 nM with murine PCSK-9 [4].

B6: ADI-09112 Fab (Fab, V domains shown)
VH: QLQLQESGPGLVKPSETLSLTCTVSGGSISSSSYYWGWIRQPPGKGLEWIGSIYYSGSTYYNPFLKSRVTISVDTSKNQFSLKLSSVTAADTAVYYCARENSGVVPAAGPNWFGPWGQGTLVTVSS
VL: EIVLTQSPATLSLSPGERATLSCRASQSVSSYLAWYQQKPGQAPRLLIYDASNRATGIPARFSGSGSGTDFTLTISSLEPEDFAVYYCQQRRNWFTFGGGTKVEIKR
On to B6, for which the Kd in assay [9] was 0.22 nM; with murine PCSK-9 [10], 1.2 nM.

B7: ADI-10090 (antibody, human IgG2, kappa, V domains shown)
VH: QLQLQESGPGLVKPSETLSLTCTVSGGSIWSSSYYWTWIRQPPGKGLEWIGSINYRGSTYYNPSLKSRVTISVDTSKNQFSLKLSSVTAADTAVYYCARENSGVVPAAGPNWFDPWGQGTLVTVSS
VL: EIVLTQSPATLSLSPGERATLSCRASQSVSSYLAWYQQKPGQAPRLLIYDASNRATGIPARFSGSGSGTDFTLTISSLEPEDFAVYYCQQRRNWFTFGGGTKVEIKR
notes: IgG
For the molecule B7, the “Fluorescence Signal Value” in [1] worked out at 6810; in [2], 6750; in [5], 4810; in [6], 4820; in [8] it was 5810. Further, the dissociation constant (Kd) in [3] amounted to 0.352 nM; with murine PCSK-9 [4], 0.674 nM.

B8: Evolocumab (antibody, V domains shown)
VH: QVQLVQSGAEVKKPGASVKVSCKASGYTLTSYGISWVRQAPGQGLEWMGWVSFYNGNTNYAQKLQGRGTMTTDPSTSTAYMELRSLRSDDTAVYYCARGYGMDVWGQGTTVTVSS
VL: QSALTQPASVSGSPGQSITISCTGTSSDVGGYNSVSWYQQHPGKAPKLMIYEVSNRPSGVSNRFSGSKSGNTASLTISGLQAEDEADYYCNSYTSTSMVFGGGTKLTVL
Turning to B8, the “Fluorescence Signal Value” in [1] worked out at 6990. Besides, the “Fluorescence Signal Value” in assay [2] was 6810. Binding in assay [3] was put at a Kd of 1.03 nM. The equilibrium dissociation constant (Kd) in the assay with murine PCSK-9 [4] was 114 nM. The “Fluorescence Signal Value” in assay [5] came to 5100. In assay [6], the “Fluorescence Signal Value” is 4800. In [7], the “BODIPY-LDL uptake … 4.2 nM, replicate 1” value came out at 0.351; the “BODIPY-LDL uptake … 4.2 nM, replicate 2” value worked out at 0.36; the “BODIPY-LDL uptake … 16.8 nM, replicate 1” value amounted to 0.355; the “BODIPY-LDL uptake … 16.8 nM, replicate 2” value amounted to 0.363. In [7], the “BODIPY-LDL uptake … 66.7 nM, replicate 1” value amounted to 0.724 and the “BODIPY-LDL uptake … 66.7 nM, replicate 2” value was 0.778. In assay [8], the “Fluorescence Signal Value” is 5780.

B9: Lodelcizumab (antibody, V domains shown)
VH: QVQLVQSGAEVKKPGASVKVSCKASGYTFSTMYMSWVRQAPGQGLEWMGRIDPANEHTNYAQKFQGRVTMTRDTSISTAYMELSRLTSDDTAVYYCARSYYYYNMDYWGQGTLVTVSS
VL: QIVLTQSPATLSVSPGERATLSCRASQSVSYMHWYQQKPGQAPRLLIYGVFRRATGIPDRFSGSGSGTDFTLTIGRLEPEDFAVYYCLQWSSDPPTFGQGTKLEIK
Turning to B9, the “Fluorescence Signal Value” in [1] was found to be 8400. Also, the “Fluorescence Signal Value” in [2] amounted to 8760. In [3], this molecule yielded a dissociation constant (Kd) of 1.51 nM. Besides, in assay [5], the “Fluorescence Signal Value” amounted to 8760. Besides, the “Fluorescence Signal Value” in assay [6] came to 7330. Moreover, in assay [7], the “BODIPY-LDL uptake … 4.2 nM, replicate 1” value was determined as 0.318; the “BODIPY-LDL uptake … 4.2 nM, replicate 2” value came to 0.352; the “BODIPY-LDL uptake … 16.8 nM, replicate 1” value is 0.317; the “BODIPY-LDL uptake … 16.8 nM, replicate 2” value came to 0.314. For the same molecule, in [7], the “BODIPY-LDL uptake … 66.7 nM, replicate 1” value was found to be 0.33 and the “BODIPY-LDL uptake … 66.7 nM, replicate 2” value is 0.312. Also, the “Fluorescence Signal Value” in assay [8] was 7330.

These data come from patent publication US20200087416A1 (Innovent, published 2020).
